Measured values: the RNAGym collection of RNA variant scans (doi:10.1073/pnas.2313332121)

B1: TPR t1 (parent)
chain: GACCAAUCUGCCCUCAGAGCUCGAGAACAUCUUCGGAUGCAGAGGAGGCAGGCUUCGGUGGCGCGAUAGCGCCAACGUCCUCAACCUCCAAUGCAUCCCACCACAUGAUGAUGCCUGAAGAGCCUUGGUUUUUUG

Variants of: B1
Test: polymerase ribozyme fitness, log enrichment relative to wild type (log ratio); higher = more active; in vitro selection for triplet polymerase activity
How it was run: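 Both subunits of a heterodimeric triplet polymerase ribozyme were given their own mutant library, built by PCR and transcribed. Each library was annealed with a biotinylated primer, the partner subunit and triplets, incubated frozen at −7 °C, and its extended constructs gel-excised, captured on streptavidin beads and amplified by RT-PCR, all in one round done in triplicate. Fitness is the logarithm of genotype enrichment relative to wild-type enrichment, with replicates averaged by inverse-variance weighting. That logarithm is base 2, and Illumina-sequenced genotypes needed ≥10 input reads and ≥1 read per output.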

Row | Variant | polymerase ribozyme fitness (log ratio)
1 | GACCAAUCUGCCCUCAGAGCUCGAGAACAUCUUCGGAUGCAGAGGAGGCUGGCUUCGGUUGCGCGAUAGCGCCAACGUCCUCAACCUCCAAUGCAUCCCACCACAUGAUGAUGCCUGAAGAGCCGUGGCUUUUUG [A50U G60U U125G U129C] | -3.19
2 | GACCAAUCUGCCCUCAGAGCUCGAGAACAUCUUCGGAUGCAGAGGAGGCAAGCUUCGGUGGCGCGAUUGCGCCAACGUCCUUAACCUCCAAUGCAUCCCACCACAUGAUGAUGCCUGAAGAGCUUUGGUUUUUUG [G51A A68U C82U C124U] | -7.31
3 | GACCAAUCUGCCCUCAGAGCUCGAGAACAUCUUCGGAUGCAGAGGAGGCUGGCUUCGGUGGCGCGAUAGCGGCAACGUCCUCAACCUCCAAUGCAUCCCACCACAUGAUGAUGCCUGAAGAGCCUUGGUUUUUUG [A50U C72G] | -1.6
4 | GACCAAUCUGCCCUCAGAGCUCGAGAACAUCUUCGGAUGCAGAGGAGGCUGGCUUCGGUGGCGCGAUAGCGUCAACGUCCUCAACCUCCAAUGCAUCCCACCACAUGAUGAUGCCUGAAGAGCCUUGGUUUUUUG [A50U C72U] | -1.18
5 | GACCAAUCUGCCCUCAGAGCUCGAGAACAUCUUCGGAUGCAGAGGAGGCUGGCUUCGGUUGCGCGAUAGCGCCAACGUCCUCAACCUCCAAUGCAUCCCACCACAUGAUGAUGCCUGAAGAGCCUUGGUUUUUUG [A50U G60U] | -1.4
6 | GACCAAUCUGCCCUCAGAGCUCGAGAACAUCUUCGGAUGCAGAGGAGGCUGGCUUCGGUGGCGCGAUAGCGCCAACGUCCUCAAACUCCAAUGCAUCCCACCACAUGAUGAUGCCUGAAGAGCCUUGGUUUUUUG [A50U C85A] | -2.11
7 | GACCAAUCUGCCCUCAGAGCUCGAGAACAUCUUCGGAUGCAGAGGAGGCAAGCUUCGGUGGCGCGAUCGCGCCAACGUGGUCACCCUCCAAUGCAUCCCACCACAUGAUGAUGCCUGAAGAGCGUUGCUUUUUUG [G51A A68C C79G C80G A84C C124G G128C] | -7.23
8 | GACCAAUCUGCCCUCAGAGCUCGAGAACAUCUUCGGAUGCAGAGGAGGCAAGCUUCGGUGGCGCGAUAGCGCCGACGUCCUCGACCUCCAAUGCAUCCCACCACAUGAUGAUGCCUGAAUAGGCUUGUUUUUUUG [G51A A74G A83G G120U C123G G128U] | -1.97
9 | GACCAAUCUGCCCUCAGAGCUCGAGAACAUCUUCGGAUGCAGAGGAGGCUGGCCUCGGUGGCGCGAUAGCGCAAACGUCCUCAACCUCCAAUGCCUCCCACCACAUGAUGAUGCCUGAAGAGCCUUGGUUUUUUG [A50U U54C C73A A95C] | -1.37
10 | GACCAAUCUGCCCUCAGAGCUCGAGAACAUCUUCGGAUGCAGAGGAGGCUGGCUUCGGUGGCGCGAUAGCGCCAACGUCCUCAACCUCCAAUGCAUCCCACCACAUGAUGGUGCCUGAAGAGCCAUGGUUUUUUG [A50U A111G U125A] | -2.24
11 | GACCAAUCUGCCCUCAGAGCUCGAGAACAUCUUCGGAUGCAGAGGAGGCUGGCUUCGGUGGCGCGAUAGCGCCAACGUCCUCAACCUCCAAUGCAUCCCACCACAUGAUGGUGCCUGAAGAGCCUUGGUUUUUUG [A50U A111G] | -0.837
12 | GACCAAUCUGCCCUCAGAGCUCGAGAACAUCUUCGGAUGCAGAGGAGGCUGGCUUCGGUGGCGCGAUAGCGCCAACGUCCUCAACCUCCAAUGCAUCCCACCACAAGAUGAUGCCUGAAGAGCCUUGGUUUUUUG [A50U U106A] | -0.951
13 | GACCAAUCUGCCCUCAGAGCUCGAGAACAUCUUCGGAUGCAGAGGAGGCUGGCUUCGGUGGCGCGAUAGCGCCAAAAUCCUCAACCUCCAAUGCAUCCCACCACAUGAUGAUGCCUGAAGAGCCUUGGUUUUUUG [A50U C76A G77A] | -1.53
14 | GACCAAUCUGCCCUCAGAGCUCGAGAACAUCUUCGGAUGCAGAGGAGGCUGGCUUCGGUGGCGCGAUAGCGCCAACGUUCUCAACCUCCAAUGCAUCCCACCACAUGAUGAUGCCUGAAGAGCCUUGGUUUUUUG [A50U C79U] | -1.76
15 | GACCAAUCUGCCCUCAGAGCUCGAGAACAUCUUCGGAUGCAGAGGAGGCUGGCUUCGCUGGCGCGAUAGCCCCAACGUCCUCAACCUCCAAUGCAUCCCACCAAAUGAUGAUGCCUGAAGAGCAUUGGUUUUUUG [A50U G58C G71C C104A C124A] | -3.2
16 | GACCAAUCUGCCCUCAGAGCUCGAGAACAUCUUCGGAUGCAGAGGAGGCUGCCUUCGGUGGCGCGAUAGCGCCAACGUCCUCCACCUCCAAUGCAUCCCACCACAUGAUGAUGCCUGAAGAGCCUUGGUUUUUUG [A50U G52C A83C] | -2.39
17 | GACCAAUCUGCCCUCAGAGCUCGAGAACAUCUUCGGAUGCAGAGGAGGCUGGCUUCGGUGGCGCGAUAGCGCCAACGUCCUCAACCUCCACUGCAUCCCACCACAUGAUGAUGCCUGAAGAGCCUUGGUUUUUUG [A50U A91C] | -3.23
18 | GACCAAUCUGCCCUCAGAGCUCGAGAACAUCUUCGGAUGCAGAGGAGGCUGGCUUCGGUGGCGCGAUAGCGCCAACGUCCUCAACCUCCAAUGCAUCCCACCACAUGAUGAAGCCUGAAGAGCUUUGCUUUUUUG [A50U U112A C124U G128C] | -4
19 | GACCAAUCUGCCCUCAGAGCUCGAGAACAUCUUCGGAUGCAGAGGAGGCUGGCUUCGGUGACGCGAUAGCGCCAACGUCCUCAACCUCCAAUGCAUCCCACCACAUGAUGAUGCCUGAAGAGCCUUGGUUUUUUG [A50U G61A] | -1.36
20 | GACCAAUCUGCCCUCAGAGCUCGAGAACAUCUUCGGAUGCAGAGGAGGCUGGCUUCGGUGUCGCGAUAGCGCCAACGUCCUCAACCUCCAAUGCAUCCCACCACAUGAUGAUGCCUGAAGAGCCUUGGUUUUUUG [A50U G61U] | -0.766
21 | GACCAAUCUGCCCUCAGAGCUCGAGAACAUCUUCGGAUGCAGAGGAGGCUGGCUUCGGUGGCGCGAUAGCGCCAACGUCCUCAACCUCCAAUGCAUCCCACCACAUGAUGAUGCCUCAAGAGCCUUGGUUUUUUG [A50U G117C] | -2.96

Row | Variant | polymerase ribozyme fitness (log ratio)
22 | GACCAAUCUGCCCUCAGAGCUCGAGAACAUCUUCGGAUGCAGAGGAGGCUGGCUUCGGUGGCGCGAUAGCGCCAACGUCCUCAACCUCCAAUGCAUCCCACCACAUGAUGAUGCAUGAAGAGCCUUGGUUUUUUG [A50U C115A] | -0.803
23 | GACCAAUCUGCCCUCAGAGCUCGAGAACAUCUUCGGAUGCAGAGGAGGCUGGCUUCGAUGGCGCGAUAGCGCCAACGUCCUCAACCUUCAAUGCAUCCCACCACAUGAUGAUGCCUGAAGAGCCUUGGUUUUUUG [A50U G58A C88U] | -2.22
24 | GACCAAUCUGCCCUCAGAGCUCGAGAACAUCUUCGGAUGCAGAGGAGGCUGGCUUCGGUGGCGCGAUAGCGCCAACGUCCUCAACCUCCAAUGCCUCCCACCACAUGAUGAUGCCUGAAGAGCCUUGGUUUUUUG [A50U A95C] | -1.9
25 | GACCAAUCUGCCCUCAGAGCUCGAGAACAUCUUCGGAUGCAGAGGAGGCUGGCUUCGGUGGCGCGAUAGCGCCAACGUCCUCAACCACCAAUGCAUCCCACCACAUGAUGAUGCCUGAAGAGCCUUGGUUUUUUG [A50U U87A] | -1.09
26 | GACCAAUCUGCCCUCAGAGCUCGAGAACAUCUUCGGAUGCAGAGGAGGCUGGCUUCGGUGGCGCGAUAGCGCCAACGUCCUCAACCUCCAAUGCAUCCCAGCACAAGAUGAUGCCUGGAGAGCAUUGGUUUUUUG [A50U C101G U106A A118G C124A] | 0.335
27 | GACCAAUCUGCCCUCAGAGCUCGAGAACAUCUUCGGAUGCAGAGGAGGCUCGCUUCGGUGGCGCGAUAGCGCUAACGUCCUCAACCUCCAAUGCAUCCCACCACAUGAUGAUGCCUGAAGAGCCUUGGUUUUUUG [A50U G51C C73U] | -3.52
28 | GACCAAUCUGCCCUCAGAGCUCGAGAACAUCUUCGGAUGCAGAGGAGGCUGGCUUCGGUGGCGCGAUAGCGCCAACGUCCUCAACCUCCAAUGCAUCCCACCACAUGAUGAUGACUGAAGAGCCUUGGUUUUUUG [A50U C114A] | -3.11
29 | GACCAAUCUGCCCUCAGAGCUCGAGAACAUCUUCGGAUGCAGAGGAGGCUGGCUUCGGUGGCGCGAUAGCGCCAAAGUCCUUAACCUCCAAUGCAUCCCACCACAUGAUGAUGCCUGAAGAGCCUUGGUUUUUUG [A50U C76A C82U] | -1.67
30 | GACCAAUCUGCCCUCAGAGCUCGAGAACAUCUUCGGAUGCAGAGGAGGCUGGCUUCGGUGGCGCGAUAGCGCCAACGUCCUCAACCUCCAAUGCAUCCCACCACAUGAUGAUACCUGAAGAGCCUUGGUUUUUUG [A50U G113A] | -2.01
31 | GACCAAUCUGCCCUCAGAGCUCGAGAACAUCUUCGGAUGCAGAGGAGGCUGGCUUCGGUGGCGCGAUAGCGCCAACGUCCUCAACCUCCAAUGCAUCCCACCACAUGAUGAUUCCUGAAGAGCCUUGGUUUUUUG [A50U G113U] | -2.75
32 | GACCAAUCUGCCCUCAGAGCUCGAGAACAUCUUCGGAUGCAGAGGAGGCUGGCUUCGGUGGCGCGAUAGCGCCAACGUGCUCAACCUCCAAUGCAUCCCACCACAUGAUAAUGCCUGAAGACCCUUGGUUUUUUG [A50U C79G G110A G122C] | -6.04
33 | GACCAAUCUGCCCUCAGAGCUCGAGAACAUCUUCGGAUGCAGAGGAGGCUGGCUUCGGUGGCACGAUAGCGCCAACGUCCUCAACCUCCAAUGCAUCCCACCACAAGAUGAUGCCUGAAGAGCCUUGGUUUUUUC [A50U G63A U106A G135C] | -2.47
34 | GACCAAUCUGCCCUCAGAGCUCGAGAACAUCUUCGGAUGCAGAGGAGGCUGGCUUCGGUGGCACGAUAGCGCCAACGUCCUCAACCUCCAAUGCAUCCCACCACAUGAUGAUGCCUGAAGAGCGUUGGUUUUUUG [A50U G63A C124G] | -0.873
35 | GACCAAUCUGCCCUCAGAGCUCGAGAACAUCUUCGGAUGCAGAGGAGGCUGGCUUCGGUGGCGCGAUAGCGCCAACGGCCUCAACCUCCUAUGCAUCCCACCACAUGAUGAUGCCUGAAGAGCCUUGGUUUUUUG [A50U U78G A90U] | -3.54
36 | GACCAAUCUGCCCUCAGAGCUCGAGAACAUCUUCGGAUGCAGAGGAGGCUGGCUUCGGGGGCGCGAUAGCGCCAACGUCCUCAACCUCCAAUGCAUCCCACCACAUGAUGAGGCCUGAAGAGCCUUGGUUUUUUG [A50U U59G U112G] | -0.842
37 | GACCAAUCUGCCCUCAGAGCUCGAGAACAUCUUCGGAUGCAGAGGAGGCUGGCUUCGGUGGCGCGAUAGCGCCAACGUCCUCAACCUCCAAUGCAUCCCACCACAUGAUGAUGCCUGAAGAGCCGUCGUUUUUUG [A50U U125G G127C] | -3.43
38 | GACCAAUCUGCCCUCAGAGCUCGAGAACAUCUUCGGAUGCAGAGGAGGCUGGCUUCGGUGGCGUGAUAGUGCCAACGUCCUCAACCUCCAAUGCAUCCCACCACAUGAUGAUGCCUGAAGAGCCUUGGUUUUUUG [A50U C64U C70U] | -5.2
39 | GACCAAUCUGCCCUCAGAGCUCGAGAACAUCUUCGGAUGCAGAGGAGGCUGGCUUCGGUGGCGCGAUAGCGCAAACGUCGUCAAACUCCGAUGCAUCCCACCACAUGAUGAUGCCUGAAGAGCCUUUGUUUUUUG [A50U C73A C80G C85A A90G G127U] | -2.82
40 | GACCAAUCUGCCCUCAGAGCUCGAGAACAUCUUCGGAUGCAGAGGAGGCUGGCUGCGGUGGCGCGAUAGCGCCAACGUCCUCAACCUCCAAUGCAUCUCACCACAUGAUGAUGCCUGAAGAGCCUUAGUUUUUUG [A50U U55G C98U G127A] | -5.19
41 | GACCAAUCUGCCCUCAGAGCUCGAGAACAUCUUCGGAUGCAGAGGAGGCAAGCUUCGGUGGCGCGAUAGCGCCAACGUCCUCCACCUCCAAUGCAUCCCACCACAUGAUGAUGCCUGAAGAGCCUUGGUUUUUUG [G51A A83C] | -3.73
42 | GACCAAUCUGCCCUCAGAGCUCGAGAACAUCUUCGGAUGCAGAGGAGGCUGCCUUCGCUGGCGCGAUAGCGUCAACGUCCUCAACCUUCAAUGCAUCCCACCACAUGAUGAUGCCUGAAGAGCCUUGGUUUUUUG [A50U G52C G58C C72U C88U] | -4.47
